# What was measured:
# [1] = biological target: Asialo-alpha 1 acid glycoprotein
# [2] = biological target: Asialo-fetuin (Bos taurus (Bovine)) (UniProt P12763)
# [3] = biological target: Bovine submaxillary asialo-mucin (bovine)
# [4] = biological target: Fetuin (Bos taurus (Bovine)) (UniProt P12763)
# [5] = biological target: alpha 1 acid glycoprotein
# [6] = biological target: Bovine submaxillary mucin (bovine)
# [7] = biological target: Asialo-alpha 1 acid glycoprotein; remark: listed apart in the source
# [8] = biological target: Asialo-fetuin (Bos taurus (Bovine)) (UniProt P12763); remark: listed apart in the source
# [9] = biological target: Bovine submaxillary asialo-mucin (bovine); remark: listed apart in the source
# [10] = biological target: Fetuin (Bos taurus (Bovine)) (UniProt P12763); remark: listed apart in the source
# [11] = biological target: alpha 1 acid glycoprotein; remark: listed apart in the source
# [12] = biological target: Bovine submaxillary mucin (bovine); remark: listed apart in the source
# [13] = substrate: CC(=O)N[C@H]1[C@H]([C@H](O)[C@H](O)CO)O[C@](OP(=O)(O)OC[C@H]2O[C@@H](n3ccc(N)nc3=O)[C@H](O)[C@@H]2O)(C(=O)O)C[C@@H]1O; experiment: Sialyltransferase assay, kinetic parameters (Km) of the renatured enzyme; format: biochemical, mouse; conditions: other: renatured enzyme after removal of urea by dialysis; measured with N-acetyllactosamine as the acceptor
# Method: Reaction mixture was added with 1 mg/ml bovine serum albumin, 1 μl of the enzyme solution, and 50 mM sodium cacodylate (pH 6.0) to a total volume of 10 μl, and incubation was continued at 37° C. for 1 h. Then, the samples were applied to silica gel60 HPTLC plate (Merck Germany) and developed with ethanol/pyridine/n-butanol/acetic acid/water (100:10:10:3:30) as a developing solvent. The radioactivity transferred on each plate was determined with a radio image analyzer BAS2000 (Fuji Photo Film, Japan, Lee, Y.-C. et al., Eur. J. Biochem., 216, 377-385, 1993).
# [14] = substrate: CC(=O)N[C@H]1C(O)O[C@H](CO)[C@@H](O[C@@H]2O[C@H](CO)[C@H](O)[C@H](O)[C@H]2O)[C@@H]1O; experiment: cells, lysate or membranes named; conditions: other: renatured enzyme after removal of urea by dialysis
# [15] = substrate: CC(=O)N[C@H]1C(O)O[C@H](CO)[C@@H](O[C@@H]2O[C@H](CO)[C@H](O)[C@H](O)[C@H]2O)[C@@H]1O; experiment: purified protein, by the assay type; conditions: pH 6.0; 37.0 °C
# [16] = substrate: CC(=O)N[C@H]1[C@H]([C@H](O)[C@H](O)CO)O[C@](OP(=O)(O)OC[C@H]2O[C@@H](n3ccc(N)nc3=O)[C@H](O)[C@@H]2O)(C(=O)O)C[C@@H]1O; experiment: purified protein, by the assay type; conditions: other: measured with N-acetyllactosamine as the acceptor; pH 6.0; 37.0 °C
molecule,measurement,setting,value
"Renatured mouse Gal beta 1,4GlcNAc alpha 2,6-sialyltransferase (from UniProt Q64685) (enzyme)","Relative Activity to Gal β 1,4GlcNAc (relative to Gal β 1,4GlcNAc)",[1],2.1
same,"Relative Activity to Gal β 1,4GlcNAc (relative to Gal β 1,4GlcNAc)",[2],1.5
same,"Relative Activity to Gal β 1,4GlcNAc (% of the control)",[3],< 2
same,"Relative Activity to Gal β 1,4GlcNAc (relative to Gal β 1,4GlcNAc)",[4],0.25
same,"Relative Activity to Gal β 1,4GlcNAc (relative to Gal β 1,4GlcNAc)",[5],0.1
same,"Relative Activity to Gal β 1,4GlcNAc (% of the control)",[6],< 2
same,Km,Asialo-orosomucoid,400 µM
"Rat liver Gal beta 1,4GlcNAc alpha 2,6-sialyltransferase (from UniProt P13721) (enzyme)","Relative Activity to Gal β 1,4GlcNAc (relative to Gal β 1,4GlcNAc)",[1],1
same,"Relative Activity to Gal β 1,4GlcNAc (relative to Gal β 1,4GlcNAc)",[2],0.97
same,"Relative Activity to Gal β 1,4GlcNAc (% of the control)",[3],< 2
same,"Relative Activity to Gal β 1,4GlcNAc (% of the control)",[4],< 2
same,"Relative Activity to Gal β 1,4GlcNAc (relative to Gal β 1,4GlcNAc)",[5],0.1
same,"Relative Activity to Gal β 1,4GlcNAc (% of the control)",[6],< 2
same,Km,Asialo-orosomucoid,200 µM
"GalNAc alpha 2,6-sialyltransferase P-B3 (enzyme)","Acceptor substrate specificity, pmol/h/µl enzyme fraction ([14C]NeuAc transfer)",Ovomucoid,< 0.5 pmol/h
same,"Acceptor substrate specificity, pmol/h/µl enzyme fraction ([14C]NeuAc transfer)",[7],1.2 pmol/h/µL
same,"Acceptor substrate specificity, pmol/h/µl enzyme fraction ([14C]NeuAc transfer)",[8],35 pmol/h/µL
same,"Acceptor substrate specificity, pmol/h/µl enzyme fraction ([14C]NeuAc transfer)",Asialo-ovomucoid,1 pmol/h/µL
same,"Acceptor substrate specificity, pmol/h/µl enzyme fraction ([14C]NeuAc transfer)",[9],5.2 pmol/h/µL
same,"Acceptor substrate specificity, pmol/h/µl enzyme fraction ([14C]NeuAc transfer)",[10],28 pmol/h/µL
same,"Acceptor substrate specificity, pmol/h/µl enzyme fraction ([14C]NeuAc transfer)",[11],< 0.5 pmol/h
same,"Acceptor substrate specificity, pmol/h/µl enzyme fraction ([14C]NeuAc transfer)",[12],0.5 pmol/h/µL
"mouse Gal β 1,4GlcNAc α 2,6-sialyltransferase, recombinant soluble form lacking the cytosolic and transmembrane domains (29th amino acid residue to C-terminal … (protein) GSDYEALTLQAKVFQMPKSQEKVAVGPAPQAVFSNSKQDPKEGVQILSYPRVTAKVKPQPSLQVWDKDSTYSKLNPRLLKIWRNYLNMNKYKVSYKGPGPGVKFSVEALRCHLRDHVNVSMIEATDFPFNTTEWEGYLPKENFRTKAGPWHKCAVVSSAGSLKNSQLGREIDNHDAVLRFNGAPTDNFQQDVGTKTTIRLVNSQLVTTEKRFLKDSLYTEGILILWDPSVYHADIPQWYQKPDYNFFETYKSYRRLHPSQPFYILKPQMPWELWDIIQEISPDLIQPNPPSSGMLGIIIMMTLCDQVDIYEFLPSKRKTDVCYYHQKFFDSACTMGAYHPLLFEKNMVKHLNEGTDEDIYLFGKATLSGFRNNRC",Km,[13],80 µM
same,Km,[14],6500 µM
"Rat liver Gal β 1,4GlcNAc α 2,6-sialyltransferase (obtained from Sigma) (Rattus norvegicus) (protein) MIHTNLKKKFSLFILVFLLFAVICVWKKGSDYEALTLQAKEFQMPKSQEKVAMGSASQVVFSNSKQDPKEDIPILSYHRVTAKVKPQPSFQVWDKDSTYSKLNPRLLKIWRNYLNMNKYKVSYKGPGPGVKFSVEALRCHLRDHVNVSMIEATDFPFNTTEWEGYLPKENFRTKVGPWQRCAVVSSAGSLKNSQLGREIDNHDAVLRFNGAPTDNFQQDVGSKTTIRLMNSQLVTTEKRFLKDSLYTEGILIVWDPSVYHADIPKWYQKPDYNFFETYKSYRRLNPSQPFYILKPQMPWELWDIIQEISADLIQPNPPSSGMLGIIIMMTLCDQVDIYEFLPSKRKTDVCYYHQKFFDSACTMGAYHPLLFEKNMVKHLNEGTDEDIYLFGKATLSGFRNIRC",Km,[15],5000 µM
same,Km,[16],40 µM

# — patent US5854042A, “Sugar-chain synthetase and process for producing the same” (The Institute of Physical and Chemical Research, priority 1993, dated 1998)
